Experimental data taken from article PMC10786891, “Massively parallel profiling of RNA-targeting CRISPR-Cas13d”.
Changes are numbered by the printed parent chain. Numbers in names are those of the source.

T1: EsCas13d, nuclease-dead (Eubacterium siraeum, UniProt B0MS50, R295A;H300A;R849A;H854A)
T1 sequence: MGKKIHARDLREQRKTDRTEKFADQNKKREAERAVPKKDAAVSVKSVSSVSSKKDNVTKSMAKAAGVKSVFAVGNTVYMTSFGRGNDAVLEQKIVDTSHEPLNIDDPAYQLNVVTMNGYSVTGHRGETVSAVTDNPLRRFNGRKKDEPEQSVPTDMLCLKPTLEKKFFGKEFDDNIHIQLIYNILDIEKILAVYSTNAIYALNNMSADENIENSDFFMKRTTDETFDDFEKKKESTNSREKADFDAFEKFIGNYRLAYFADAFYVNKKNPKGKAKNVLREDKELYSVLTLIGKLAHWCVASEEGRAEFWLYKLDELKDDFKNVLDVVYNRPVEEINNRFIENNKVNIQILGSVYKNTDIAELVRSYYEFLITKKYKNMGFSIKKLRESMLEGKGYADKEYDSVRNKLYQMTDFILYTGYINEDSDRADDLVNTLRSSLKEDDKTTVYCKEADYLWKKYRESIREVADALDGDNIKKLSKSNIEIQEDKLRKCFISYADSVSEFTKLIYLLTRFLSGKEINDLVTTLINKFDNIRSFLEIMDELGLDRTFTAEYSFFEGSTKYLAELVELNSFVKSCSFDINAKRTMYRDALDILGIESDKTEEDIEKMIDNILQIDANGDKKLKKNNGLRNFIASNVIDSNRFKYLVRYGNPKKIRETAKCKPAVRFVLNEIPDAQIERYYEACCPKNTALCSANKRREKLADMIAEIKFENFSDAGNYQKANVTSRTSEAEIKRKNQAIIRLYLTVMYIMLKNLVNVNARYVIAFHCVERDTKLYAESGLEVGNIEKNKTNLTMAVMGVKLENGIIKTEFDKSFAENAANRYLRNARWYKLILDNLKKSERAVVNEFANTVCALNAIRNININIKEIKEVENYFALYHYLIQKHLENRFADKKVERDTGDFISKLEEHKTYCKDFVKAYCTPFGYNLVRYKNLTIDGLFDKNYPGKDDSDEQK

B1: target 1 insA 3' of 5,insG 3' of 1 (mixed)
RNA 1: CACCCGUGCAAAAAUGCAGGGGUCUAAAACUGAGCGGAUAACCUCUCUAUGG
RNA 2: GGGAAUGGAUCCACAUCUACGAAUUCGUACCAUAGAGAGGUUAUCCGACUCAGCCGAGAUCGGAAGAGCACACGU
B2: target 1 insA 3' of 5,insA 3' of 2 (mixed)
RNA 1: B1 RNA 1
RNA 2: B1 RNA 2 with G53A
B3: target 1 insU 3' of 21,insC 3' of 5 (mixed)
RNA 1: B1 RNA 1
RNA 2: GGGAAUGGAUCCACAUCUACGAAUUCGUACCUAUAGAGAGGUUAUCCGCCUCACCGAGAUCGGAAGAGCACACGU
B4: target 3 U2A,G3C (mixed)
RNA 1: CACCCGUGCAAAAUUGCAGGGGUCUAAAACGACCUGAAUAUUUCAGAUCAAA
RNA 2: GGGAAUGGAUCCACAUCUACGAAUUCGUUUUUGAUCUGAAAUAUUCAGCACUGCAGAUCGGAAGAGCACACGU
B5: target 3 insG 3' of 5 (mixed)
RNA 1: B4 RNA 1
RNA 2: GGGAAUGGAUCCACAUCUACGAAUUCGUUUUUGAUCUGAAAUAUUCAGGGUCUGCAGAUCGGAAGAGCACACGU
B6: target 3 insG 3' of 5,insA 3' of 4 (mixed)
RNA 1: B4 RNA 1
RNA 2: GGGAAUGGAUCCACAUCUACGAAUUCGUUUUUGAUCUGAAAUAUUCAGGAGUCUGCAGAUCGGAAGAGCACACGU
B7: target 3 G4U,A11G (mixed)
RNA 1: B4 RNA 1
RNA 2: B4 RNA 2 with A41G, G48U, C49G, A50U
B8: target 3 complement block 13-15 (mixed)
RNA 1: B4 RNA 1
RNA 2: B4 RNA 2 with U37A, G38C, A39U, C49G, A50U
B9: target 3 C6A,U7A (mixed)
RNA 1: B4 RNA 1
RNA 2: B4 RNA 2 with U45A, C46A, C49G, A50U
B10: target 3 del2,del19 (mixed)
RNA 1: B4 RNA 1
RNA 2: GGGAAUGGAUCCACAUCUACGAAUUCGUUUUUAUCUGAAAUAUUCAGGCUGCAGAUCGGAAGAGCACACGU
B11: target 3 U7A,U8A (mixed)
RNA 1: B4 RNA 1
RNA 2: B4 RNA 2 with U44A, U45A, C49G, A50U
B12: target 3 C6G,U8C (mixed)
RNA 1: B4 RNA 1
RNA 2: B4 RNA 2 with U44C, C46G, C49G, A50U
B13: target 3 G4C,U22G (mixed)
RNA 1: B4 RNA 1
RNA 2: B4 RNA 2 with U30G, G48C, C49G, A50U
B14: target 3 A12G,A18G (mixed)
RNA 1: B4 RNA 1
RNA 2: B4 RNA 2 with A34G, A40G, C49G, A50U
B15: target 3 G4U,A5G (mixed)
RNA 1: B4 RNA 1
RNA 2: B4 RNA 2 with A47G, G48U, C49G, A50U
B16: target 3 G3U,C6U (mixed)
RNA 1: B4 RNA 1
RNA 2: B4 RNA 2 with C46U, C49U, A50U
B17: target 3 U2G,A12U (mixed)
RNA 1: B4 RNA 1
RNA 2: B4 RNA 2 with A40U, C49G, A50G
B18: target 3 C1U,U22G (mixed)
RNA 1: B4 RNA 1
RNA 2: B4 RNA 2 with U30G, C49G, A50U, C51U
B19: target 3 G4U,U8A (mixed)
RNA 1: B4 RNA 1
RNA 2: B4 RNA 2 with U44A, G48U, C49G, A50U
B20: target 3 insG 3' of 9,insU 3' of 5 (mixed)
RNA 1: B4 RNA 1
RNA 2: B6 RNA 2 with U44G, C46U, A47C, G48A, G49U, A50G
B21: target 3 insC 3' of 9,insA 3' of 7 (mixed)
RNA 1: B4 RNA 1
RNA 2: B6 RNA 2 with U44C, C46U, G48C, G49A, A50G
B22: target 3 G3U,C6A (mixed)
RNA 1: B4 RNA 1
RNA 2: B4 RNA 2 with C46A, C49U, A50U
B23: target 3 U8A,A11C (mixed)
RNA 1: B4 RNA 1
RNA 2: B4 RNA 2 with A41C, U44A, C49G, A50U
B24: target 3 U2A,U7A (mixed)
RNA 1: B4 RNA 1
RNA 2: B4 RNA 2 with U45A, C49G
B25: target 3 G4A,U7A (mixed)
RNA 1: B4 RNA 1
RNA 2: B4 RNA 2 with U45A, G48A, C49G, A50U
B26: target 3 insU 3' of 22 (mixed)
RNA 1: B4 RNA 1
RNA 2: GGGAAUGGAUCCACAUCUACGAAUUCGUUUUUUGAUCUGAAAUAUUCAGGUCUGCAGAUCGGAAGAGCACACGU
B27: target 3 insC 3' of 9,insG 3' of 2 (mixed)
RNA 1: B4 RNA 1
RNA 2: B6 RNA 2 with U44C, C46U, A47C, G48A, A50G, G51U, U52G
B28: target 3 insA 3' of 8,insA 3' of 2 (mixed)
RNA 1: B4 RNA 1
RNA 2: B6 RNA 2 with U45A, C46U, A47C, G48A, A50G, G51U, U52A
B29: target 3 C6G,U22A (mixed)
RNA 1: B4 RNA 1
RNA 2: B4 RNA 2 with U30A, C46G, C49G, A50U
B30: target 3 U2G,G4U (mixed)
RNA 1: B4 RNA 1
RNA 2: B4 RNA 2 with G48U, C49G, A50G
B31: target 3 U7C,U22C (mixed)
RNA 1: B4 RNA 1
RNA 2: B4 RNA 2 with U30C, U45C, C49G, A50U
B32: target 3 U2A,A13U (mixed)
RNA 1: B4 RNA 1
RNA 2: B4 RNA 2 with A39U, C49G
B33: target 3 insG 3' of 6,insG 3' of 2 (mixed)
RNA 1: B4 RNA 1
RNA 2: B6 RNA 2 with A47G, G48A, A50G, G51U, U52G

target: T1, EsCas13d, nuclease-dead; assay: crRNA (strand 1, pre-loaded); Mg2+; 40 mM Tris-HCl pH 7.5, 150 mM NaCl, 6 mM MgCl2, 1 mM DTT, 0.1% Tween-20, 0.2 mg/ml BSA; 25 C; 10 min per concentration, then washed; conditions: tags: His6-TwinStrep-SUMO cleaved; N-terminal SNAP kept (SNAP-Surface 488); label: 3' end held by stalled T7 RNA polymerase

**Q.** How did the Kd turn out when B1 was run?
**A.** 5.4 ± 0.4 nM

**Q.** How did the Kd turn out when B2 was run?
**A.** 7.8 ± 0.7 nM

**Q.** B3 was tested. Which Kd did it give?
**A.** 50 ± 10 nM

**Q.** Which Kd does the source give for B4 here?
**A.** 23.2 ± 2 nM

**Q.** With B5 as the binder, how does the Kd read?
**A.** 19.9 ± 1.95 nM

**Q.** Which Kd does the source give for B6 here?
**A.** 9.2 ± 1.05 nM

**Q.** For B7, which Kd is on record?
**A.** 43.5 ± 8 nM

**Q.** Which Kd does the source give for B8 here?
**A.** 67.8 ± 31.8 nM

**Q.** How did the Kd turn out when B9 was run?
**A.** 46.5 ± 5 nM

**Q.** B10 was tested. Which Kd did it give?
**A.** 98.5 ± 25 nM

**Q.** Which Kd does the source give for B11 here?
**A.** 83 ± 15.5 nM

**Q.** How did the Kd turn out when B12 was run?
**A.** 74.5 ± 7 nM

**Q.** B13 was tested. Which Kd did it give?
**A.** 85.5 ± 24.5 nM

**Q.** With B14 as the binder, how does the Kd read?
**A.** 62 ± 13 nM

**Q.** Which Kd does the source give for B15 here?
**A.** 7.04 ± 0.57 nM

**Q.** With B16 as the binder, how does the Kd read?
**A.** 19.2 ± 1.95 nM

**Q.** For B17, which Kd is on record?
**A.** 46.5 ± 6.5 nM

**Q.** Which Kd does the source give for B18 here?
**A.** 77.5 ± 21 nM

**Q.** With B19 as the binder, how does the Kd read?
**A.** 30.2 ± 3.9 nM

**Q.** With B20 as the binder, how does the Kd read?
**A.** 65.5 ± 9 nM

**Q.** How did the Kd turn out when B21 was run?
**A.** 60.5 ± 12.5 nM

**Q.** For B22, which Kd is on record?
**A.** 39.7 ± 3.65 nM

**Q.** With B23 as the binder, how does the Kd read?
**A.** 42 ± 7 nM

**Q.** B24 was tested. Which Kd did it give?
**A.** 13.1 ± 1.7 nM

**Q.** B25 was tested. Which Kd did it give?
**A.** 21.1 ± 2.25 nM

**Q.** How did the Kd turn out when B26 was run?
**A.** 17.4 ± 1.8 nM

**Q.** Which Kd does the source give for B27 here?
**A.** 81.5 ± 19 nM

**Q.** With B28 as the binder, how does the Kd read?
**A.** 59.5 ± 18.5 nM

**Q.** B29 was tested. Which Kd did it give?
**A.** 26.2 ± 3.5 nM

**Q.** For B30, which Kd is on record?
**A.** 2.11 ± 0.25 nM

**Q.** Which Kd does the source give for B31 here?
**A.** 70.5 ± 13.5 nM

**Q.** How did the Kd turn out when B32 was run?
**A.** ~91.5 nM

**Q.** Which Kd does the source give for B33 here?
**A.** 16.3 ± 3 nM
